Test [1] concerns the target T1, TPP-2202, TWEAKR-ECD-28-80-hIgGFc-His (human).
T1 construct: also called TWEAKR-Fc fusion protein; full-length ectodomain Fc fusion
The test is described as follows: ELISA: TPP-2202 (TWEAKR 28-80-Fc) coated at 1 µg/ml; biotinylated IgG at 0.08 µg/ml (open bars) and 0.3 µg/ml (solid bars; legend of FIG. 3 prints 0.03); streptavidin-HRP, Amplex Red; Y = signal [Rfu]. As to the method:
FIG. 3: Interaction of the TWEAKR ectodomain with antibodies and reference antibodies. […] Detection was carried out using streptavidin-HRP and Amplex Red substrate.
Detection was carried out using streptavidin-HRP and Amplex Red substrate. IgGs were biotinylated using an about 2-fold molar excess of biotin-LC-NHS (Pierce; Cat. No. 21347) according to the instructions of the manufacturer and desalted using Zeba desalting columns (Pierce; Cat. No. 89889).

In test [2] the target is T2, TPP-2617, TweakR-ECD-34-68-hIgGFc-His-S54A (human).
T2 construct: Used as HEK293 supernatant; also called S54A mutein
Description: alanine scan ELISA: IgG coated 1 µg/ml, HEK293 supernatant of TWEAKR(34-68)-Fc construct, anti-HIS-HRP. Background: ELISA stands for enzyme-linked immunosorbent assay.

The target of test [3] is T3, TPP-2608, TweakR-ECD-34-68-hIgGFc-His-R38A (human).
T3 construct: Used as HEK293 supernatant; also called R38A mutein
Described as above.

The target in test [4] is T4, TPP-2621, TweakR-ECD-34-68-hIgGFc-His-H60A (human).
T4 construct: Used as HEK293 supernatant; also called H60A mutein
The description is as above.

Test [5] has as its target T5, TPP-2620, TweakR-ECD-34-68-hIgGFc-His-P59A (human).
T5 construct: Used as HEK293 supernatant; also called P59A mutein
Described as above.

For test [6], the target named is T6, TPP-2610, TweakR-ECD-34-68-hIgGFc-His-S41A (human).
T6 construct: Used as HEK293 supernatant; also called S41A mutein
The test is described as above.

The target of test [7] is T7, TPP-2623, TweakR-ECD-34-68-hIgGFc-His-D62A (human).
T7 construct: Used as HEK293 supernatant; also called D62A mutein
The test is described as above.

In test [8] the target is T8, TPP-2622, TweakR-ECD-34-68-hIgGFc-His-S61A (human).
T8 construct: Used as HEK293 supernatant; also called S61A mutein
The description is as above.

Test [9] deals with T9, TPP-2615, TweakR-ECD-34-68-hIgGFc-His-K48A (human).
T9 construct: Used as HEK293 supernatant; also called K48A mutein
The description is as above.

The target of test [10] is T10, TPP-2624, TweakR-ECD-34-68-hIgGFc-His-F63A (human).
T10 construct: Used as HEK293 supernatant; also called F63A mutein
Described as above.

Test [11] has as its target T11, TPP-2607, TweakR-ECD-34-68-hIgGFc-His-S37A (human).
T11 construct: Used as HEK293 supernatant; also called S37A mutein
Described as above.

In test [12] the target is T12, TPP-2611, TweakR-ECD-34-68-hIgGFc-His-W42A (human).
T12 construct: Used as HEK293 supernatant; also called W42A mutein (34-68)
Described as above.

Test [13] concerns the target T13, TPP-2609, TweakR-ECD-34-68-hIgGFc-His-S40A (human).
T13 construct: Used as HEK293 supernatant; also called S40A mutein
Described as above.

Test [14] deals with T14, TPP-2618, TweakR-ECD-34-68-hIgGFc-His-R56A (human).
T14 construct: Used as HEK293 supernatant; also called R56A mutein
Described as above.

Test [15] addresses T15, TPP-2616, TweakR-ECD-34-68-hIgGFc-His-D51A (human).
T15 construct: Used as HEK293 supernatant; also called D51A mutein
Described as above.

Test [16] addresses T16, TPP-2619, TweakR-ECD-34-68-hIgGFc-His-R58A (human).
T16 construct: Used as HEK293 supernatant; also called R58A mutein
The description is as above.

Test [17] deals with T17, TPP-2612, TweakR-ECD-34-68-hIgGFc-His-S43A (human).
T17 construct: Used as HEK293 supernatant; also called S43A mutein
Described as above.

Test [18] deals with T18, TPP-2613, TweakR-ECD-34-68-hIgGFc-His-D45A (human).
T18 construct: Used as HEK293 supernatant; also called D45A mutein
The description is as above.

The target in test [19] is T19, TPP-2625, TweakR-ECD-34-68-hIgGFc-His-L65A (human).
T19 construct: Used as HEK293 supernatant; also called L65A mutein
The description is as above.

Test [20] has as its target T20, TPP-2614, TweakR-ECD-34-68-hIgGFc-His-D47A (human).
T20 construct: also called D47A mutein
The test is described as follows: ELISA: IgG coated at 1 µg/ml; 8-fold diluted HEK293 supernatant with the TWEAKR(34-68)-Fc-His mutein added; anti-HIS-HRP, Amplex Red; signal [Rfu]. As for the experimental part:
These TWEAKR(34-68) Fc muteins were expressed in HEK293 cells. To obtain dose-reaction data, IgGs were coated at a concentration of 1 μg/ml onto a 384-well Maxisorp ELISA plate, and a serial 2-fold dilution of the supernatant comprising the TWEAKR mutein was used as soluble binding partner. Detection was carried out using anti-HIS-HRP and Amplex Red.

Consider two molecules from patent publication US20160346402A1 (Bayer, published 2016).

T1 sequence (chain, as listed by the source limits assumed): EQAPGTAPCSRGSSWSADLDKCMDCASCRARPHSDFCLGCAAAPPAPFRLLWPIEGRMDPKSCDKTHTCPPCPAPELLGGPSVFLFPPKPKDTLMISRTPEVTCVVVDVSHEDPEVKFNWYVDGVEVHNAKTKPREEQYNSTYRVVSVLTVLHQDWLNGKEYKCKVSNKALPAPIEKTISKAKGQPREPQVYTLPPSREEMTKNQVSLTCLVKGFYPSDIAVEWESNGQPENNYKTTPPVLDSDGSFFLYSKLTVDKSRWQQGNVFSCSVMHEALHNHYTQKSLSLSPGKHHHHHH

B1: P4A8(TPP-1324) (antibody, human IgG1, kappa, V domains shown)
VH: QVQLVQSGAEVKKPGASVKVSCKGSGYTFTDYGMHWVRQAPGQGLEWMGVISTYNGYTNYNQKFKGRVTMTVDKSTSTAYMELRSLRSDDTAVYYCARAYYGNLYYAMDYWGQGTLVTVSS
VL: DIVLTQSPASLAVSLGQRATISCRASKSVSTSSYSYMHWYQQKPGQPPKLLIKYASNLESGVPARFSGSGSGTDFSLNIHPMEEDDTAMYFCQHSRELPFTFGGGTKLEIKR
notes: Comparative antibody; variable domains from WO2009/140177 with human IgG1 constant region added
Turning to B1, the binding result in test [1] is on record as “binds”; in [2], “no binding”; in [3], “no binding”; in test [4], “no binding”; in [5], “no binding”; in test [6], “no binding”. The binding result in test [7], in [8], in test [9], in test [10], in [11] and in [12] was “no binding” throughout. Moreover, the binding result in test [13], in test [14], in test [15], in test [16], in test [17] and in test [18] was “no binding” each time. Also, the binding result in test [19] is given as “no binding”.

B2: PDL-192(TPP-1104) (antibody, human IgG1, kappa, V domains shown)
VH: QVELVESGGGLVQPGGSLRLSCAASGFTFSSYWMSWVRQAPGKGLEWVAEIRLKSDNYATHYAESVKGRFTISRDDSKNSLYLQMNSLRAEDTAVYYCTGYYADAMDYWGQGTLVTVSS
VL: DIQMTQSPSSLSASVGDRVTITCRASQSVSTSSYSYMHWYQQKPGKAPKLLIKYASNLESGVPSRFSGSGSGTDFTLTISSLQPEDFATYYCQHSWEIPYTFGGGTKVEIKR
notes: Comparative antibody; variable domains from WO2009/020933 with human IgG1 constant region added
B2: the binding result in [20] is “binds”.
